{
  "source": "paper PMC7749629",
  "binders": {"B1": {"name": "mutated tRNAAU-Ala (U59A, G60A; GAAA at 57-60) (structured_RNA)", "RNA": "GGGGAAUUAGCUCAAAUGGUAGAGCGCUCGCUUAGCAUGCGAGAGGUAGCGGGAUCGAAACCCGCAUUCUCCA", "modifications": "unmodified transcript"}},
  "target": "T1, h-PUS10 (recombinant PUS10 from total HEK293T extract) (human, UniProt Q3MIT2 1-529)",
  "T1 sequence": "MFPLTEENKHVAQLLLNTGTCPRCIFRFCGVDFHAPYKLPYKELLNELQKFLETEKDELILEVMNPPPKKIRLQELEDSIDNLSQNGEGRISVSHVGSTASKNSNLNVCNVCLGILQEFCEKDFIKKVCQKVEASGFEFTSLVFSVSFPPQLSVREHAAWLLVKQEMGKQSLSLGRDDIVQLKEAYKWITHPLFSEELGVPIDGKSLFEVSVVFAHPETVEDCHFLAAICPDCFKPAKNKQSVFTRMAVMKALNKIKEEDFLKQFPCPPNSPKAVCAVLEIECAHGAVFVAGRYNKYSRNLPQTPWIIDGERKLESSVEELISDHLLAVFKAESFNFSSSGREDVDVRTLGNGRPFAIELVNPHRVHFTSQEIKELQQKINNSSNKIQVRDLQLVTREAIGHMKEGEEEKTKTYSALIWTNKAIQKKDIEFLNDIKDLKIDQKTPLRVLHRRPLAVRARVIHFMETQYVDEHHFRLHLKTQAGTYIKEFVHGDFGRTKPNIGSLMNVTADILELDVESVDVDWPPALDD",
  "assay": "EMSA",
  "data": [
    {"binder": "B1", "values": [
      {"measurement": "binding result", "result": "binds"}
    ]}
  ]
}
